Patent publication US20160116478A1 (ORDER MADE MEDICAL RESEARCH, published 2016)

Columns and labels:
[1] = biological target: T1, partial protein of human LGR4 (amino acids 311 to 577) (human, UniProt Q9BXB1 311-577); assay: Western blot of E. coli lysate expressing the partial protein
T1 construct: Run as crude E. coli culture lysate, denatured, on SDS-PAGE and Western blot; also called LGR4 partial protein; partial protein of LGR4; not shown: N-terminal Trx-, S- and His-tags from pET32b vector; C-terminal His-tag from pET32b vector
T1 sequence: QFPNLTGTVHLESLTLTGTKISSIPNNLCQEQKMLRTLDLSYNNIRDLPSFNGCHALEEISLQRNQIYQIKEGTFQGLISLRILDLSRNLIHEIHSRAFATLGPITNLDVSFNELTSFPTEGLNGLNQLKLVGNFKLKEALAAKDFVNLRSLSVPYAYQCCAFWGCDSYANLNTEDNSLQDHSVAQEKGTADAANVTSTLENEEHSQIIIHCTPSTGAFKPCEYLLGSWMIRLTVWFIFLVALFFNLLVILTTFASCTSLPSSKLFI
Procedure: (§1) After electrophoresis, the proteins were transferred onto a PVDF membrane. Skimmed milk dissolved at a concentration of 5% (w/v) in TBS-T was used to block the membrane at room temperature for 30 minutes, and the membrane was washed twice with TBS-T. Among the monoclonal antibodies obtained in Example 1. (7), Mu2C15 was diluted to 1 μg/mL with TBS-T and reacted with the membrane for 1 hour at room temperature. After washing three times with TBS-T, anti-mouse IgG polyclonal antibody-HRP label was diluted 100,000-fold with TBS-T for use as a secondary antibody. This dilution was reacted with the membrane at room temperature for 30 minutes, followed by washing three times with TBS-T. The membrane was soaked in Immobilon and then wrapped, followed by signal detection with LAS-3000 (FIG. 15b)

[2] = biological target: T2, partial protein of human LGR5 (amino acids 319 to 563) (human, UniProt O75473 319-563); assay: as above
T2 construct: Run as crude E. coli culture lysate, denatured, on SDS-PAGE and Western blot; also called LGR5 partial protein; partial protein of LGR5; not shown: N-terminal Trx-, S- and His-tags from pET32a vector; C-terminal His-tag from pET32a vector
T2 sequence: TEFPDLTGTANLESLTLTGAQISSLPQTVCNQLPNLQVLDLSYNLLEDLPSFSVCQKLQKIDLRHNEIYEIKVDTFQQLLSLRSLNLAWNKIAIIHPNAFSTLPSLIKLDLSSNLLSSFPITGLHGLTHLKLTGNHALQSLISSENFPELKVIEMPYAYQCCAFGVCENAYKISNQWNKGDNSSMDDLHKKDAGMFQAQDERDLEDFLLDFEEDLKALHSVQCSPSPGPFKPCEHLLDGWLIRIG
Procedure: as §1

binding result [1]: no binding (tested: 1 µg/mL)
binding result [2]: no binding (tested: 1 µg/mL)
B1: Mu2C15 antibody (monoclonal antibody produced by Mouse-Mouse hybridoma Mu2C15) (antibody, V domains shown)
VH: QVQLQQSAAELARPGASVKMSCKASGYTFTTYTMHWVKQRPGQGLEWIGYINPNNGYTEFNQKFKDKTTLTADKSSSTAYMQLSSLTSEDSAVYYCARRDYYRFSTGFAYWGQGTLVTVSA
VL: DVVMTQTPLSLPVSLGDQASISCRSSQSLVHTNGNTYLHWYLQKPGQSPKLLIYKVSNRFSGVPDRFSGSGSGTDFTLKISRVEAEDLGVYFCSQSTHVPYTFGGGTKLEIK
notes: Mouse hybridoma antibody; Used as culture supernatant or Protein G purified, and unlabeled when immobilized in the sandwich ELISA; also called clone No. Mu2C15; anti-LGR6 antibody
